Assay results as given in PMC9499513 (Proceedings of the National Academy of Sciences of the …, 2022).

Biological target: histone H4 (X. laevis, UniProt P62799 1-103)
Assay: cryo-EM structure

B1: IMPORTIN-4 (natural protein)
chain: MESAGLEQLLRELLLPDTERIRRATEQLQIVLRAPAALPALCDLLASAADPQIRQFAAVLTRRRLNTRWRRLAAEQRESLKSLILTALQRETEHCVSLSLAQLSATIFRKEGLEAWPQLLQLLQHSTHSPHSPEREMGLLLLSVVVTSRPEAFQPHHRELLRLLNETLGEVGSPGLLFYSLRTLTTMAPYLSTEDVPLARMLVPKLIMAMQTLIPIDEAKACEALEALDELLESEVPVITPYLSEVLTFCLEVARNVALGNAIRIRILCCLTFLVKVKSKALLKNRLLPPLLHTLFPIVAAEPPPGQLDPEDQDSEEEELEIELMGETPKHFAVQVVDMLALHLPPEKLCPQLMPMLEEALRSESPYQRKAGLLVLAVLSDGAGDHIRQRLLPPLLQIVCKGLEDPSQVVRNAALFALGQFSENLQPHISSYSREVMPLLLAYLKSVPLGHTHHLAKACYALENFVENLGPKVQPYLPELMECMLQLLRNPSSPRAKELAVSALGAIATAAQASLLPYFPAIMEHLREFLLTGREDLQPVQIQSLETLGVLARAVGEPMRPLAEECCQLGLGLCDQVDDPDLRRCTYSLFAALSGLMGEGLAPHLEQITTLMLLSLRSTEGIVPQYDGSSSFLLFDDESDGEEEEELMDEDVEEEDDSEISGYSVENAFFDEKEDTCAAVGEISVNTSVAFLPYMESVFEEVFKLLECPHLNVRKAAHEALGQFCCALHKACQSCPSEPNTAALQAALARVVPSYMQAVNRERERQVVMAVLEALTGVLRSCGTLTLKPPGRLAELCGVLKAVLQRKTACQDTDEEEEEEDDDQAEYDAMLLEHAGEAIPALAAAAGGDSFAPFFAGFLPLLVCKTKQGCTVAEKSFAVGTLAETIQGLGAASAQFVSRLLPVLLSTAQEADPEVRSNAIFGMGVLAEHGGHPAQEHFPKLLGLLFPLLARERHDRVRDNICGALARLLMASPTRKPEPQVLAALLHALPLKEDLEEWVTIGRLFSFLYQSSPDQVIDVAPELLRICSLILADNKIPPDTKAALLLLLTFLAKQHTDSFQAALGSLPVDKAQELQAVLGLS
binding result: binds
